Assay [1] concerns the target human B7.2 ectodomain, His-tagged (human) (UniProt P42081). In words: cryo-EM structure.
Assay [2] addresses MPXV M2 (monkeypox virus M2 protein), His-tagged, wild type (monkeypox virus (Clade I)) (UniProt Q8V554). In words: cryo-EM structure.
The target of assay [3] is human B7.1 ectodomain, His-tagged (human) (UniProt P33681). In words: cryo-EM structure.
Assay [4] has as its target MPXV M2 (monkeypox virus M2 protein), His-tagged, wild type (monkeypox virus (Clade I)) (UniProt Q8V554). The assay can be described thus: SEC-MALS. A general note: In gel filtration, larger molecules generally elute earlier.
Assay [5] deals with human B7.2 ectodomain fused to human Fc (human) (UniProt P42081). In words: BLI; […] (10 ug/mL) […]; 10 mM HEPES pH 7.4, 150 mM NaCl, 3 mM EDTA, 0.05% Tween, 1% BSA; 25 °C; 1:1 model; […].
Chain of human B7.2 ectodomain fused to human Fc (human) (P42081 26-238): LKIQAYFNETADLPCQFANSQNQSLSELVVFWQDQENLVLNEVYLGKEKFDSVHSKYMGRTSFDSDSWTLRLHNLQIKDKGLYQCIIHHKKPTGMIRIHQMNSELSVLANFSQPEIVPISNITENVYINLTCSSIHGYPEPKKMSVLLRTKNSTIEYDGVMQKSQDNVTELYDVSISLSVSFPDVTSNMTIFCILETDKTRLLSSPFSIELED
Assay [6] concerns the target human B7.1 ectodomain fused to human Fc (human) (UniProt P33681). The assay is described as above.

By stoichiometry N is commonly meant the number of molecules, sites or subunits per partner or assembly.

Values joined by “and” are separate entries in the source; they are usually repeats but may differ in a detail not shown here. Equal values may be shown once.

Chain of human B7.2 ectodomain, His-tagged (human) (P42081 26-238): as above
Chain of human B7.1 ectodomain, His-tagged (human) (P33681 35-234): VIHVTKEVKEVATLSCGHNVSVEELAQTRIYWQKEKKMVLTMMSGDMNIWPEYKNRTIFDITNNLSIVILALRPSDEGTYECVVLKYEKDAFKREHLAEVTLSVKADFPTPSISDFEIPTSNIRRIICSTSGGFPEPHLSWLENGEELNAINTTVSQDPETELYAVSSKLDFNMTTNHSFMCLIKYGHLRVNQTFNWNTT
Chain of human B7.1 ectodomain fused to human Fc (human) (P33681 35-234): as above

As for “MPXV M2 (monkeypox virus M2 protein), His-tagged, wild type (from UniProt Q8V554 18-220) (natural protein)”, the stoichiometry N was 1 in assay [1]; 6 and 7 in assay [2]; 1 in assay [3]; 6.12 in assay [4]. In addition, the figures for the t1/2 (dissociation half-life time) in assay [5] and in assay [6] were 19.7 h and 6.62 h, respectively.
